A short description of this series: self-splicing fitness, log relative to wild type (ln ratio); higher = more splicing; Tetrahymena group I intron in knt gene, E. coli kanamycin selection, DiMSum; sequences stand for … in CUCUCU…GGAGGGAAAAGUUAUCAGGCAUGCACCUGGUAGCUAGUCUUUAAACCAAUAGAUUGCAUCGGUUUAAAAGGCAAGACCGUCAAAUUGCGGGAAAGGGGUCAACAGCCGUUCAGUACCAAGUCUCAGGGGAAACUUUGAGAUGGCCUUGCAAAGGGUAUGGUAAUAAGCUGACGGACAUGGUCCUAACCACGCAGCCAAGUCCUAAGUCAACAGAUCUUCUGUUGAUAUGGAUGCAGUUCACAGACUAAAUGUCGGUCGGGGAAGAUGUAUUCUUCUCAUAAGAUAUAGUCGGACCUCUCCUUAAUGGGAGCUAGCGGAUGAAGUGAUGCAACACUGGAGCCGCUGGGAACUAAUUUGUAUGCGAAAGUAUAUUGAUUAGUUUUGGAGUACUCGUGGUCG
The essentials: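 Library with all eight P1ex-region intron nucleotides randomised, intron inside the knt kanamycin-resistance gene on pET-22b(+), in E. coli BL21(DE3). Cells grew overnight at 37°C or 30°C on LB agar with or without 25 μg/mL kanamycin (plus 100 μg/mL carbenicillin, 50 μM IPTG, 0.2% rhamnose), in six replicate transformations. Pooled colonies were amplicon-sequenced on Illumina HiSeq 2500. DiMSum fitness is the error-weighted combination of wild-type-normalised replicate fold changes, kanamycin versus none.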

± gives the uncertainty stated by the source.

Take CACCAGCAAUAUUACGAAGC: the “self-splicing fitness (ln)” value is, setting by setting: (30 °C) -3.27 ± 0.15; (37 °C) -2 ± 0.14. On to AGGGAGCAAUAUUACGUAAG, for which the “self-splicing fitness (ln)” value was -3.17 ± 0.2 (30 °C) and -2.28 ± 0.3 (37 °C). Regarding AUCUAGCAAUAUUACGAUGG, the “self-splicing fitness (ln)” value was -3.59 ± 0.2 (30 °C) and -1.75 ± 0.19 (37 °C). GCGAAGCAAUAUUACGCCAA: the “self-splicing fitness (ln)” value (37 °C) is -1.82 ± 0.39. In the case of CAUGAGCAAUAUUACGUCUA, the “self-splicing fitness (ln)” value is -2.57 ± 0.17 (30 °C) and -2.28 ± 0.21 (37 °C). CCCAAGCAAUAUUACGAAUA: the “self-splicing fitness (ln)” value is -3.15 ± 0.27 (30 °C) and -2.68 ± 0.25 (37 °C). For GAUAAGCAAUAUUACGUAGA the same measures were -3.26 ± 0.22 and -0.548 ± 0.14. Taken in the same sequence, the figures for CGAGAGCAAUAUUACGGUGC were -3.73 ± 0.25 and -3.43 ± 0.46. For the sequence AGAAAGCAAUAUUACGCAUU, the “self-splicing fitness (ln)” value by setting is: (30 °C) -2.49 ± 0.15; (37 °C) -2.06 ± 0.22. Taken in the same sequence, the figures for GGUCAGCAAUAUUACGCAGU were -1.33 ± 0.11 and -0.639 ± 0.13. For the sequence GCCGAGCAAUAUUACGAAUA, the “self-splicing fitness (ln)” value (37 °C) is -1.51 ± 0.47. Regarding CGCGAGCAAUAUUACGUGGU, the “self-splicing fitness (ln)” value (30 °C) is -3.27 ± 0.15 and the “self-splicing fitness (ln)” value (37 °C) is -2.64 ± 0.21. On to AUCAAGCAAUAUUACGAAUU, for which the “self-splicing fitness (ln)” value (30 °C) is -3.12 ± 0.14 and the “self-splicing fitness (ln)” value (37 °C) is -1.21 ± 0.14. In the case of ACAGAGCAAUAUUACGGCAU, the “self-splicing fitness (ln)” value is, setting by setting: (30 °C) -3.25 ± 0.23; (37 °C) -0.707 ± 0.17.

As to CGUCAGCAAUAUUACGCGAC, the “self-splicing fitness (ln)” value (30 °C) is -2.57 ± 0.49. With GCCUAGCAAUAUUACGGCAC, the “self-splicing fitness (ln)” value is -1.31 ± 0.17 (30 °C) and -0.195 ± 0.14 (37 °C). Taken in the same sequence, the figures for CCCAAGCAAUAUUACGUGAG were -2.48 ± 0.09 and -0.85 ± 0.08. For UACUAGCAAUAUUACGUAGU the same measures were -3.62 ± 0.22 and -1.65 ± 0.25. As to AUCGAGCAAUAUUACGCUGC, the “self-splicing fitness (ln)” value (30 °C) is -2.59 ± 0.45.

Regarding AGCUAGCAAUAUUACGCGAU, the “self-splicing fitness (ln)” value (30 °C) was -3 ± 0.31 and the “self-splicing fitness (ln)” value (37 °C) was -2.14 ± 0.22.

Regarding AUGGAGCAAUAUUACGUCUG, the “self-splicing fitness (ln)” value is -2.81 ± 0.24 (30 °C) and -2.04 ± 0.25 (37 °C). Taken in the same sequence, the figures for GCGGAGCAAUAUUACGCUUU were -3.1 ± 0.31 and -3.21 ± 0.28.

As for UUGCAGCAAUAUUACGCCUG, the “self-splicing fitness (ln)” value by setting is: (30 °C) -2.63 ± 0.15; (37 °C) -1.6 ± 0.19. UAAAAGCAAUAUUACGAGUG: the “self-splicing fitness (ln)” value is, setting by setting: (30 °C) -0.615 ± 0.057; (37 °C) 0.0674 ± 0.084. Turning to ACUAAGCAAUAUUACGUAAU, the “self-splicing fitness (ln)” value by setting is: (30 °C) -1.14 ± 0.073; (37 °C) -0.739 ± 0.09.

For GUCAAGCAAUAUUACGAUAU, the “self-splicing fitness (ln)” value is -1.28 ± 0.07 (30 °C) and -0.525 ± 0.078 (37 °C). As to GGAUAGCAAUAUUACGCGGG, the “self-splicing fitness (ln)” value was -3.3 ± 0.17 (30 °C) and -0.931 ± 0.11 (37 °C). Take GCAAAGCAAUAUUACGACGA: the “self-splicing fitness (ln)” value (30 °C) is -0.0819 ± 0.088 and the “self-splicing fitness (ln)” value (37 °C) is -0.213 ± 0.1. Taken in the same sequence, the figures for GUCGAGCAAUAUUACGUAAC were -0.996 ± 0.13 and -0.434 ± 0.14.

Take UCGUAGCAAUAUUACGCGAG: the “self-splicing fitness (ln)” value is, setting by setting: (30 °C) -4.07 ± 0.23; (37 °C) -2.43 ± 0.16. Consider CAGUAGCAAUAUUACGGGUC, for which the “self-splicing fitness (ln)” value (30 °C) is -3.88 ± 0.37 and the “self-splicing fitness (ln)” value (37 °C) was -1.32 ± 0.24. As for UAACAGCAAUAUUACGGGCA, the “self-splicing fitness (ln)” value is -0.826 ± 0.085 (30 °C) and -0.324 ± 0.078 (37 °C). As for CUAUAGCAAUAUUACGGAUU, the “self-splicing fitness (ln)” value (30 °C) was -3.43 ± 0.24 and the “self-splicing fitness (ln)” value (37 °C) is -2.29 ± 0.24. For GCCUAGCAAUAUUACGCAAG, the “self-splicing fitness (ln)” value (30 °C) is -3.71 ± 0.47. Consider GCUAAGCAAUAUUACGGUGG, for which the “self-splicing fitness (ln)” value reads like this: (30 °C) -3.83 ± 0.23; (37 °C) -1.82 ± 0.21. In the case of GCAUAGCAAUAUUACGUACU, the “self-splicing fitness (ln)” value is -0.89 ± 0.07 (30 °C) and -0.056 ± 0.079 (37 °C). AUUAAGCAAUAUUACGUAAG: the “self-splicing fitness (ln)” value was -0.562 ± 0.12 (30 °C) and -0.864 ± 0.19 (37 °C). For AAACAGCAAUAUUACGGCCG the same measures were -1.69 ± 0.13 and -0.732 ± 0.16.

On to AAGUAGCAAUAUUACGGAAU, for which the “self-splicing fitness (ln)” value (30 °C) is -3.66 ± 0.2 and the “self-splicing fitness (ln)” value (37 °C) was -1.52 ± 0.16.

As for UCUCAGCAAUAUUACGGGCU, the “self-splicing fitness (ln)” value is -1.77 ± 0.18 (30 °C) and -2.43 ± 0.44 (37 °C).

These data come from the supplement of paper PMC7877785.
